Patent publication US20120058906A1
Values belong to the substance of their own block, whether it stands above or below them.

Tests used:
[1] = target: Recombinant Human DLL4 (R&D Systems Cat#1506-D4/CF) (human) (UniProt Q9NR61); experiment: MSD ECL multi-spot plate, antigen immobilized; Fab 42.112 nM; blank spot 323
[2] = target: rHuman Erythropoietin R/Fc Chimera, CF (R&D Systems Cat#963-ER) (human) (UniProt P19235); experiment: as above
[3] = target: rHuman HGF R/c-MET/Fc Chimera, CF (R&D Systems Cat#358-MT/CF) (human) (UniProt P08581); experiment: as above
[4] = target: rHuman Notch-1/Fc Chimera, CF (R&D Systems Cat#3647-TK) (human) (UniProt P46531); experiment: as above
[5] = target: Recombinant Human DLL4 (R&D Systems Cat#1506-D4/CF) (human) (UniProt Q9NR61); experiment: MSD ECL multi-spot plate, antigen immobilized; Fab 421.12 nM; blank spot 639
[6] = target: rHuman Erythropoietin R/Fc Chimera, CF (R&D Systems Cat#963-ER) (human) (UniProt P19235); experiment: as above
[7] = target: rHuman HGF R/c-MET/Fc Chimera, CF (R&D Systems Cat#358-MT/CF) (human) (UniProt P08581); experiment: as above
[8] = target: rHuman Notch-1/Fc Chimera, CF (R&D Systems Cat#3647-TK) (human) (UniProt P46531); experiment: as above
[9] = target: rHuman Erythropoietin R/Fc Chimera, CF (R&D Systems Cat#963-ER) (human) (UniProt P19235); experiment: ECL (MSD multi-spot) screen, antigen spotted on plate, Fab at 0.42 uM; blank spot 450
[10] = target: Recombinant Human DLL4 (R&D Systems Cat#1506-D4/CF) (human) (UniProt Q9NR61); experiment: MSD ECL multi-spot plate, antigen immobilized; Fab 12 nM; blank spot 573
[11] = target: rHuman HGF R/c-MET/Fc Chimera, CF (R&D Systems Cat#358-MT/CF) (human) (UniProt P08581); experiment: as above
[12] = target: rHuman Notch-1/Fc Chimera, CF (R&D Systems Cat#3647-TK) (human) (UniProt P46531); experiment: as above
[13] = target: Recombinant Human DLL4 (R&D Systems Cat#1506-D4/CF) (human) (UniProt Q9NR61); experiment: MSD ECL multi-spot plate, antigen immobilized; Fab 1.2 nM; blank spot 227
[14] = target: rHuman HGF R/c-MET/Fc Chimera, CF (R&D Systems Cat#358-MT/CF) (human) (UniProt P08581); experiment: as above
[15] = target: rHuman Notch-1/Fc Chimera, CF (R&D Systems Cat#3647-TK) (human) (UniProt P46531); experiment: as above
[16] = target: Recombinant Human DLL4 (R&D Systems Cat#1506-D4/CF) (human) (UniProt Q9NR61); experiment: MSD ECL multi-spot plate, antigen immobilized; Fab 0.12 nM; blank spot 264
[17] = target: rHuman HGF R/c-MET/Fc Chimera, CF (R&D Systems Cat#358-MT/CF) (human) (UniProt P08581); experiment: as above
[18] = target: rHuman Notch-1/Fc Chimera, CF (R&D Systems Cat#3647-TK) (human) (UniProt P46531); experiment: as above
[19] = target: Recombinant Human DLL4 (R&D Systems Cat#1506-D4/CF) (human) (UniProt Q9NR61); experiment: MSD ECL multi-spot plate, antigen immobilized; Fab 120 nM; blank spot 6749
[20] = target: rHuman HGF R/c-MET/Fc Chimera, CF (R&D Systems Cat#358-MT/CF) (human) (UniProt P08581); experiment: as above
[21] = target: rHuman Notch-1/Fc Chimera, CF (R&D Systems Cat#3647-TK) (human) (UniProt P46531); experiment: as above
[22] = target: Recombinant Human DLL4 (R&D Systems Cat#1506-D4/CF) (human) (UniProt Q9NR61); experiment: ECL (MSD multi-spot) screen, antigen spotted on plate, Fab at 0.12 uM; blank spot 2225
[23] = target: rHuman ErbB2/Fc Chimera, CF (R&D Systems Cat#1129-ER) (human) (UniProt P04626); experiment: as above
[24] = target: rHuman HGF R/c-MET/Fc Chimera, CF (R&D Systems Cat#358-MT/CF) (human) (UniProt P08581); experiment: as above
[25] = target: rHuman Notch-1/Fc Chimera, CF (R&D Systems Cat#3647-TK) (human) (UniProt P46531); experiment: as above
[26] = target: rHuman EGF R/Fc Chimera, CF (R&D Systems Cat#344-ER) (human) (UniProt P00533); experiment: ECL (MSD multi-spot), Fab […]; blank 376
[27] = target: rHuman ErbB2/Fc Chimera, CF (R&D Systems Cat#1129-ER) (human) (UniProt P04626); experiment: ECL (MSD multi-spot), Fab […]; blank 376
[28] = target: rHuman Erythropoietin R/Fc Chimera, CF (R&D Systems Cat#963-ER) (human) (UniProt P19235); experiment: ECL (MSD multi-spot), Fab […]; blank 376
[29] = target: rHuman HGF R/c-MET/Fc Chimera, CF (R&D Systems Cat#358-MT/CF) (human) (UniProt P08581); experiment: ECL (MSD multi-spot), Fab […]; blank 376
[30] = target: rHuman IGF-1 sR (IGF-1 sR), CF (R&D Systems Cat#391-GR) (human) (UniProt P08069); experiment: ECL (MSD multi-spot), Fab […]; blank 376
[31] = target: rHuman Notch-1/Fc Chimera, CF (R&D Systems Cat#3647-TK) (human) (UniProt P46531); experiment: ECL (MSD multi-spot), Fab […]; blank 376
[32] = target: rHuman EGF R/Fc Chimera, CF (R&D Systems Cat#344-ER) (human) (UniProt P00533); experiment: ECL (MSD multi-spot), Fab 210 nM; blank 833
[33] = target: rHuman ErbB2/Fc Chimera, CF (R&D Systems Cat#1129-ER) (human) (UniProt P04626); experiment: ECL (MSD multi-spot), Fab 210 nM; blank 833
[34] = target: rHuman Erythropoietin R/Fc Chimera, CF (R&D Systems Cat#963-ER) (human) (UniProt P19235); experiment: ECL (MSD multi-spot), Fab 210 nM; blank 833
[35] = target: rHuman HGF R/c-MET/Fc Chimera, CF (R&D Systems Cat#358-MT/CF) (human) (UniProt P08581); experiment: ECL (MSD multi-spot), Fab 210 nM; blank 833
[36] = target: rHuman IGF-1 sR (IGF-1 sR), CF (R&D Systems Cat#391-GR) (human) (UniProt P08069); experiment: ECL (MSD multi-spot), Fab 210 nM; blank 833
[37] = target: rHuman Notch-1/Fc Chimera, CF (R&D Systems Cat#3647-TK) (human) (UniProt P46531); experiment: ECL (MSD multi-spot), Fab 210 nM; blank 833
[38] = target: rHuman EGF R/Fc Chimera, CF (R&D Systems Cat#344-ER) (human) (UniProt P00533); experiment: ECL (MSD multi-spot), Fab 3.3 nM; blank 359
[39] = target: rHuman ErbB2/Fc Chimera, CF (R&D Systems Cat#1129-ER) (human) (UniProt P04626); experiment: ECL (MSD multi-spot), Fab 3.3 nM; blank 359
[40] = target: rHuman Erythropoietin R/Fc Chimera, CF (R&D Systems Cat#963-ER) (human) (UniProt P19235); experiment: ECL (MSD multi-spot), Fab 3.3 nM; blank 359
[41] = target: rHuman HGF R/c-MET/Fc Chimera, CF (R&D Systems Cat#358-MT/CF) (human) (UniProt P08581); experiment: ECL (MSD multi-spot), Fab 3.3 nM; blank 359
[42] = target: rHuman IGF-1 sR (IGF-1 sR), CF (R&D Systems Cat#391-GR) (human) (UniProt P08069); experiment: ECL (MSD multi-spot), Fab 3.3 nM; blank 359
[43] = target: rHuman Notch-1/Fc Chimera, CF (R&D Systems Cat#3647-TK) (human) (UniProt P46531); experiment: ECL (MSD multi-spot), Fab 3.3 nM; blank 359
[44] = target: rHuman EGF R/Fc Chimera, CF (R&D Systems Cat#344-ER) (human) (UniProt P00533); experiment: ECL (MSD multi-spot), Fab 52.5 nM; blank 467
[45] = target: rHuman ErbB2/Fc Chimera, CF (R&D Systems Cat#1129-ER) (human) (UniProt P04626); experiment: ECL (MSD multi-spot), Fab 52.5 nM; blank 467
[46] = target: rHuman Erythropoietin R/Fc Chimera, CF (R&D Systems Cat#963-ER) (human) (UniProt P19235); experiment: ECL (MSD multi-spot), Fab 52.5 nM; blank 467
[47] = target: rHuman HGF R/c-MET/Fc Chimera, CF (R&D Systems Cat#358-MT/CF) (human) (UniProt P08581); experiment: ECL (MSD multi-spot), Fab 52.5 nM; blank 467
[48] = target: rHuman IGF-1 sR (IGF-1 sR), CF (R&D Systems Cat#391-GR) (human) (UniProt P08069); experiment: ECL (MSD multi-spot), Fab 52.5 nM; blank 467
[49] = target: rHuman Notch-1/Fc Chimera, CF (R&D Systems Cat#3647-TK) (human) (UniProt P46531); experiment: ECL (MSD multi-spot), Fab 52.5 nM; blank 467
[50] = target: rHuman EGF R/Fc Chimera, CF (R&D Systems Cat#344-ER) (human) (UniProt P00533); experiment: ECL (MSD multi-spot) screen, antigen spotted on plate, Fab at 0.21 uM; blank spot 489
[51] = target: rHuman ErbB2/Fc Chimera, CF (R&D Systems Cat#1129-ER) (human) (UniProt P04626); experiment: as above
[52] = target: rHuman HGF R/c-MET/Fc Chimera, CF (R&D Systems Cat#358-MT/CF) (human) (UniProt P08581); experiment: as above
[53] = target: rHuman IGF-1 sR, CF (R&D Systems Cat#391-GR) (human) (UniProt P08069); experiment: as above

rHuman Erythropoietin R/Fc Chimera, CF (R&D Systems Cat#963-ER) (human), sequence (P19235 25-250, change not shown): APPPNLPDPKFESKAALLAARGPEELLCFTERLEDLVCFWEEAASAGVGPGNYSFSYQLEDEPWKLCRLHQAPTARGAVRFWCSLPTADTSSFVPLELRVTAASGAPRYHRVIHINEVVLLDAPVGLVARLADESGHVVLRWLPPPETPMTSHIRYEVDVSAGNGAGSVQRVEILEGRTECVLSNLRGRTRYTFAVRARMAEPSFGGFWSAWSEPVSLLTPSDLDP

- ECL signal [1]: 404 ECL signal
- ECL signal [2]: 759 ECL signal
- ECL signal [3]: 565 ECL signal
- ECL signal [4]: 437 ECL signal
- ECL signal [5]: 1090 ECL signal
- ECL signal [6]: 1300 ECL signal
- ECL signal [7]: 1200 ECL signal
- ECL signal [8]: 1060 ECL signal
- ECL signal [9]: 1500
Substance: Fab VH3-23_IGHD3-10*01>1′_IGHJ3*01 & O12_IGKJ1*01

- ECL signal [10]: 2510 ECL signal
- ECL signal [11]: 2700 ECL signal
- ECL signal [12]: 2580 ECL signal
- ECL signal [13]: 319 ECL signal
- ECL signal [14]: 412 ECL signal
- ECL signal [15]: 660 ECL signal
- ECL signal [16]: 210 ECL signal
- ECL signal [17]: 287 ECL signal
- ECL signal [18]: 218 ECL signal
- ECL signal [19]: 20600 ECL signal
- ECL signal [20]: 15900 ECL signal
- ECL signal [21]: 14400 ECL signal
- ECL signal [22]: 6650
- ECL signal [23]: 4580
- ECL signal [24]: 5470
- ECL signal [25]: 5500
Substance: Fab VH3-23_IGHD3-10*01>3_IGHJ6*01 & O12_IGKJ1*01

- ECL signal [26]: 824 ECL signal
- ECL signal [27]: 930 ECL signal
- ECL signal [28]: 776 ECL signal
- ECL signal [29]: 981 ECL signal
- ECL signal [30]: 814 ECL signal
- ECL signal [31]: 669 ECL signal
- ECL signal [32]: 1620 ECL signal
- ECL signal [33]: 1980 ECL signal
- ECL signal [34]: 2120 ECL signal
- ECL signal [35]: 2060 ECL signal
- ECL signal [36]: 1430 ECL signal
- ECL signal [37]: 1970 ECL signal
- ECL signal [38]: 847 ECL signal
- ECL signal [39]: 1030 ECL signal
- ECL signal [40]: 695 ECL signal
- ECL signal [41]: 849 ECL signal
- ECL signal [42]: 743 ECL signal
- ECL signal [43]: 726 ECL signal
- ECL signal [44]: 1110 ECL signal
- ECL signal [45]: 1510 ECL signal
- ECL signal [46]: 1320 ECL signal
- ECL signal [47]: 1290 ECL signal
- ECL signal [48]: 911 ECL signal
- ECL signal [49]: 1320 ECL signal
- ECL signal [50]: 1300
- ECL signal [51]: 1310
- ECL signal [52]: 1530
- ECL signal [53]: 1560
Substance: Fab VH4-31_IGHD2-15*01_IGHJ2*01 & V1-4_IGLJ4*01
